The subject of one test is JNK1, p38α and ERK2. Briefly: MAPK interaction profile from FP binding affinities. Also noted: species or system human. The note with it: from FP binding affinities to JNK1, p38α and ERK2.
In another test the target is p38α (human) (UniProt Q16539). Briefly: fluorescence polarisation. A general note: In fluorescence polarisation assays a small probe gives low polarisation when free and higher when bound to something large.
The target in test [1] is extracellular signal-regulated kinase 2 (ERK2) (human) (UniProt P28482). Briefly: fluorescence polarisation.
The target in test [2] is extracellular signal-regulated kinase 2 (ERK2) (human, UniProt P28482). Kind of test: fluorescence polarisation.
The target in a further test is p38α (human, UniProt Q16539 1-360). Briefly: fluorescence polarisation.
p38α, sequence (Q16539 whole entry): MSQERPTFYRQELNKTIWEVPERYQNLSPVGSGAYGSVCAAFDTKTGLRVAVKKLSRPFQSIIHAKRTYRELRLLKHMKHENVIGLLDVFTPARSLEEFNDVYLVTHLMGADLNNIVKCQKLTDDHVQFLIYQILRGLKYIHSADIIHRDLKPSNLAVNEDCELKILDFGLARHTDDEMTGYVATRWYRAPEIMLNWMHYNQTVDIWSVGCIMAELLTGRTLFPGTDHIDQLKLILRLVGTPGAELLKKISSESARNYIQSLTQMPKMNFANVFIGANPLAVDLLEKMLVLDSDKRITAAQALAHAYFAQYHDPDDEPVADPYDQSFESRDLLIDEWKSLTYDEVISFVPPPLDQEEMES

p38α (human), sequence (Q16539 whole entry): as above
extracellular signal-regulated kinase 2 (ERK2) (human), sequence (P28482 whole entry): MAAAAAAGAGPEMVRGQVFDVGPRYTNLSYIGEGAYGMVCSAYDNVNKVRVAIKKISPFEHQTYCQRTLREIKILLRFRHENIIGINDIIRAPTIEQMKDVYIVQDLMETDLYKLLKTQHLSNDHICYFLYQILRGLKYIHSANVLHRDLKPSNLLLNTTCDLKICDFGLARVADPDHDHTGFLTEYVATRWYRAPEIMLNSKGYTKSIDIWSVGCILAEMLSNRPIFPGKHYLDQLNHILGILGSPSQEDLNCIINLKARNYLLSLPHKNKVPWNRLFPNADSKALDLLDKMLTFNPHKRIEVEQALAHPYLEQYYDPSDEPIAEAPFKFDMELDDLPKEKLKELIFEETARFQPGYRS
extracellular signal-regulated kinase 2 (ERK2), sequence (P28482 whole entry): as above

With LERPSRDHLYLPLE [pepNFAT4], the “MAPK binding profile (in words)” value in the test on JNK1, p38α and ERK2 is “bound JNK1 exclusively”; in the test with JNK1, p38α and ERK2 (listed as NFAT4) it was “JNK-specific”.

In the test with p38α (human), “pepMK2 (C-terminal MAPK docking peptide of MK2)” gave a fold preference for the cognate MAPK (p38α against ERK2) of 400 fold. In test [1], “pepRSK1 (C-terminal MAPK docking peptide of RSK1)” registered a fold preference for the cognate MAPK (ERK2 against p38α) of 20 fold.

B1: pepSynth-revD (artificially designed revD-motif peptide) (designed binder)
peptide: LSLSSLAASSLAKRRQQ
By Kd is commonly meant the free concentration of one partner at which half of the binding sites on the other are occupied at equilibrium, for simple one-to-one binding. Read a low Kd as a tighter complex. As to B1, the results for the equilibrium dissociation constant (Kd) (in test [2]; with p38α) were about 10 µM and about 30 µM, respectively.

(Values after article PMC3500698 (Science signaling, 2012).)
